T1: CD52 human leukocyte antigen (human, UniProt P31358 25-36)
T1 construct: whole, on cells; also called CD52 antigen
T1 chain (looked up): GQNDTSQTSSPS

B1: DIVH2/DIVK2 (antibody, human IgG1, V domains shown)
VH: EVQLLESGGGLVQPGGSLRLSCAGSGFTFTDFYMNWIRQPPGKAPEWIGFIRDKAKGYTTEYNPSVKGRFTISRDNSKNTLYLQMNSLRAEDTAVYYCAREGHTAAPFDYWGQGTLVTVSS
VL: DIQMTQSPSSLSASVGDRVTITCKASQNIDKYLNWYQQKPGKAPKLLIYNTNNLQTGVPSRFSGSGSGTDFTLTISSLQPEDIATYYCLQHISRPRTFGTGTKLELK
notes: also called DIVH2IDIVK2; DIVHv2/DIVKv2
B2: DIVH5/DIVK2 (antibody, human IgG1, V domains shown)
VH: EVQLLESGGGLVQPGGSLRLSCAGSGFTFTDFYMNWIRQPPGKAPEWLGFIRDKAKGYTTEYNPSVKGRFTISRDNSKNTLYLQMNSLRAEDTAVYYCAREGHTAAPFDYWGQGTLVTVSS
VL: DIQMTQSPSSLSASVGDRVTITCKASQNIDKYLNWYQQKPGKAPKLLIYNTNNLQTGVPSRFSGSGSGTDFTLTISSLQPEDIATYYCLQHISRPRTFGTGTKLELK
notes: also called DIVHv5/DIVKv2
B3: DIVH5/DIVK3 (antibody, human IgG1, V domains shown)
VH: EVQLLESGGGLVQPGGSLRLSCAGSGFTFTDFYMNWIRQPPGKAPEWLGFIRDKAKGYTTEYNPSVKGRFTISRDNSKNTLYLQMNSLRAEDTAVYYCAREGHTAAPFDYWGQGTLVTVSS
VL: DIQMTQSPSSLSASVGDRVTITCRASQNIDKYLNWYQQKPGKAPKLLIYNTNNLQSGVPSRFSGSGSGTDFTLTISSLQPEDIATYYCLQHISRPRTFGTGTKLELK
notes: also called DIVHv5/DIVKv3
B4: DIVH1/DIVK5 (antibody, human IgG1, V domains shown)
VH: EVQLLESGGGLVQPGGSLRLSCAGSGFTFTDFYMNWVRQAPGKGLEWVGFIRDKAKGYTTEYNPSVKGRFTISRDNSKNTLYLQMNSLRAEDTAVYYCAREGHTAAPFDYWGQGTLVTVSS
VL: DIQMTQSPSSLSASVGDRVTITCKASQNIDKYLNWYQQKPGKSPKLLIYNTNNLQTGVPSRFSGSGSGTDFTLTISSLQPEDIATYYCLQHISRPRTFGTGTKLELK
notes: also called DIVHv1/DIVKv5
B5: DIVH1/DIVK3 (antibody, human IgG1, V domains shown)
VH: EVQLLESGGGLVQPGGSLRLSCAGSGFTFTDFYMNWVRQAPGKGLEWVGFIRDKAKGYTTEYNPSVKGRFTISRDNSKNTLYLQMNSLRAEDTAVYYCAREGHTAAPFDYWGQGTLVTVSS
VL: DIQMTQSPSSLSASVGDRVTITCRASQNIDKYLNWYQQKPGKAPKLLIYNTNNLQSGVPSRFSGSGSGTDFTLTISSLQPEDIATYYCLQHISRPRTFGTGTKLELK
notes: also called DIVHv1/DIVKv3
B6: DIVH1/DIVK4 (antibody, human IgG1, V domains shown)
VH: EVQLLESGGGLVQPGGSLRLSCAGSGFTFTDFYMNWVRQAPGKGLEWVGFIRDKAKGYTTEYNPSVKGRFTISRDNSKNTLYLQMNSLRAEDTAVYYCAREGHTAAPFDYWGQGTLVTVSS
VL: DIQMTQSPSSLSASVGDRVTITCKASQNIDKYLNWYQQKPGKAPKSLIYNTNNLQTGVPSRFSGSGSGTDFTLTISSLQPEDIATYYCLQHISRPRTFGTGTKLELK
notes: also called DIVHv1/DIVKv4
B7: DIVH2/DIVK3 (antibody, human IgG1, V domains shown)
VH: EVQLLESGGGLVQPGGSLRLSCAGSGFTFTDFYMNWIRQPPGKAPEWIGFIRDKAKGYTTEYNPSVKGRFTISRDNSKNTLYLQMNSLRAEDTAVYYCAREGHTAAPFDYWGQGTLVTVSS
VL: DIQMTQSPSSLSASVGDRVTITCRASQNIDKYLNWYQQKPGKAPKLLIYNTNNLQSGVPSRFSGSGSGTDFTLTISSLQPEDIATYYCLQHISRPRTFGTGTKLELK
notes: also called DIVHv2/DIVKv3
B8: DIVH4/DIVK5 (antibody, human IgG1, V domains shown)
VH: EVQLLESGGGLVQPGGSLRLSCAGSGFTFTDFYMNWVRQAPGKGLEWVGFIRDKAKGYTTEYNPSVKGRFTISRDNAKNSLYLQMNSLRAEDTAVYYCAREGHTAAPFDYWGQGTLVTVSS
VL: DIQMTQSPSSLSASVGDRVTITCKASQNIDKYLNWYQQKPGKSPKLLIYNTNNLQTGVPSRFSGSGSGTDFTLTISSLQPEDIATYYCLQHISRPRTFGTGTKLELK
notes: also called DIVHv4/DIVKv5
B9: DIVH4/DIVK2 (antibody, human IgG1, V domains shown)
VH: EVQLLESGGGLVQPGGSLRLSCAGSGFTFTDFYMNWVRQAPGKGLEWVGFIRDKAKGYTTEYNPSVKGRFTISRDNAKNSLYLQMNSLRAEDTAVYYCAREGHTAAPFDYWGQGTLVTVSS
VL: DIQMTQSPSSLSASVGDRVTITCKASQNIDKYLNWYQQKPGKAPKLLIYNTNNLQTGVPSRFSGSGSGTDFTLTISSLQPEDIATYYCLQHISRPRTFGTGTKLELK
notes: also called DIVHv4/DIVKv2
B10: DIVH2/DIVK5 (antibody, human IgG1, V domains shown)
VH: EVQLLESGGGLVQPGGSLRLSCAGSGFTFTDFYMNWIRQPPGKAPEWIGFIRDKAKGYTTEYNPSVKGRFTISRDNSKNTLYLQMNSLRAEDTAVYYCAREGHTAAPFDYWGQGTLVTVSS
VL: DIQMTQSPSSLSASVGDRVTITCKASQNIDKYLNWYQQKPGKSPKLLIYNTNNLQTGVPSRFSGSGSGTDFTLTISSLQPEDIATYYCLQHISRPRTFGTGTKLELK
notes: also called DIVHv2/DIVKv5; CAMPATH-1G DIVHv2/DIVKv5
B11: DIVH5/DIVK1 (antibody, human IgG1, V domains shown)
VH: EVQLLESGGGLVQPGGSLRLSCAGSGFTFTDFYMNWIRQPPGKAPEWLGFIRDKAKGYTTEYNPSVKGRFTISRDNSKNTLYLQMNSLRAEDTAVYYCAREGHTAAPFDYWGQGTLVTVSS
VL: DIQMTQSPSSLSASVGDRVTITCRASQNIDKYLNWYQQKPGKAPKSLIYNTNNLQSGVPSRFSGSGSGTDFTLTISSLQPEDIATYYCLQHISRPRTFGTGTKLELK
notes: also called DIVHv5/DIVKv1
B12: DIVH2/DIVK4 (antibody, human IgG1, V domains shown)
VH: EVQLLESGGGLVQPGGSLRLSCAGSGFTFTDFYMNWIRQPPGKAPEWIGFIRDKAKGYTTEYNPSVKGRFTISRDNSKNTLYLQMNSLRAEDTAVYYCAREGHTAAPFDYWGQGTLVTVSS
VL: DIQMTQSPSSLSASVGDRVTITCKASQNIDKYLNWYQQKPGKAPKSLIYNTNNLQTGVPSRFSGSGSGTDFTLTISSLQPEDIATYYCLQHISRPRTFGTGTKLELK
notes: also called DIVHv2/DIVKv4
B13: DIVH3/DIVK2 (antibody, human IgG1, V domains shown)
VH: EVKLQESGGGLVQPGGSMRISCSGSGFTFTDFYMNWIRQPPGKGPEWIGFIRDKAKGYTTEYNPSVKGRFTISRDNTQNTLHLQANTLRAEDTAVYYCAREGHTAAPFDYWGQGTTVTVSS
VL: DIQMTQSPSSLSASVGDRVTITCKASQNIDKYLNWYQQKPGKAPKLLIYNTNNLQTGVPSRFSGSGSGTDFTLTISSLQPEDIATYYCLQHISRPRTFGTGTKLELK
notes: also called DIVHv3/DIVKv2
B14: DIVH4/DIVK4 (antibody, human IgG1, V domains shown)
VH: EVQLLESGGGLVQPGGSLRLSCAGSGFTFTDFYMNWVRQAPGKGLEWVGFIRDKAKGYTTEYNPSVKGRFTISRDNAKNSLYLQMNSLRAEDTAVYYCAREGHTAAPFDYWGQGTLVTVSS
VL: DIQMTQSPSSLSASVGDRVTITCKASQNIDKYLNWYQQKPGKAPKSLIYNTNNLQTGVPSRFSGSGSGTDFTLTISSLQPEDIATYYCLQHISRPRTFGTGTKLELK
notes: also called DIVHv4/DIVKv4
B15: DIVH4/DIVK3 (antibody, human IgG1, V domains shown)
VH: EVQLLESGGGLVQPGGSLRLSCAGSGFTFTDFYMNWVRQAPGKGLEWVGFIRDKAKGYTTEYNPSVKGRFTISRDNAKNSLYLQMNSLRAEDTAVYYCAREGHTAAPFDYWGQGTLVTVSS
VL: DIQMTQSPSSLSASVGDRVTITCRASQNIDKYLNWYQQKPGKAPKLLIYNTNNLQSGVPSRFSGSGSGTDFTLTISSLQPEDIATYYCLQHISRPRTFGTGTKLELK
notes: also called DIVHv4/DIVKv3
B16: DIVH1/DIVK1 (antibody, human IgG1, V domains shown)
VH: EVQLLESGGGLVQPGGSLRLSCAGSGFTFTDFYMNWVRQAPGKGLEWVGFIRDKAKGYTTEYNPSVKGRFTISRDNSKNTLYLQMNSLRAEDTAVYYCAREGHTAAPFDYWGQGTLVTVSS
VL: DIQMTQSPSSLSASVGDRVTITCRASQNIDKYLNWYQQKPGKAPKSLIYNTNNLQSGVPSRFSGSGSGTDFTLTISSLQPEDIATYYCLQHISRPRTFGTGTKLELK
notes: also called DIVHv1/DIVKv1
B17: DIVH4/DIVK1 (antibody, human IgG1, V domains shown)
VH: EVQLLESGGGLVQPGGSLRLSCAGSGFTFTDFYMNWVRQAPGKGLEWVGFIRDKAKGYTTEYNPSVKGRFTISRDNAKNSLYLQMNSLRAEDTAVYYCAREGHTAAPFDYWGQGTLVTVSS
VL: DIQMTQSPSSLSASVGDRVTITCRASQNIDKYLNWYQQKPGKAPKSLIYNTNNLQSGVPSRFSGSGSGTDFTLTISSLQPEDIATYYCLQHISRPRTFGTGTKLELK
notes: also called DIVHv4/DIVKv1
B18: DIVH1/DIVK2 (antibody, human IgG1, V domains shown)
VH: EVQLLESGGGLVQPGGSLRLSCAGSGFTFTDFYMNWVRQAPGKGLEWVGFIRDKAKGYTTEYNPSVKGRFTISRDNSKNTLYLQMNSLRAEDTAVYYCAREGHTAAPFDYWGQGTLVTVSS
VL: DIQMTQSPSSLSASVGDRVTITCKASQNIDKYLNWYQQKPGKAPKLLIYNTNNLQTGVPSRFSGSGSGTDFTLTISSLQPEDIATYYCLQHISRPRTFGTGTKLELK
notes: also called DIVHv1/DIVKv2
B19: DIVH5/DIVK4 (antibody, human IgG1, V domains shown)
VH: EVQLLESGGGLVQPGGSLRLSCAGSGFTFTDFYMNWIRQPPGKAPEWLGFIRDKAKGYTTEYNPSVKGRFTISRDNSKNTLYLQMNSLRAEDTAVYYCAREGHTAAPFDYWGQGTLVTVSS
VL: DIQMTQSPSSLSASVGDRVTITCKASQNIDKYLNWYQQKPGKAPKSLIYNTNNLQTGVPSRFSGSGSGTDFTLTISSLQPEDIATYYCLQHISRPRTFGTGTKLELK
notes: also called DIVHv5/DIVKv4
B20: DIVH2/DIVK1 (antibody, human IgG1, V domains shown)
VH: EVQLLESGGGLVQPGGSLRLSCAGSGFTFTDFYMNWIRQPPGKAPEWIGFIRDKAKGYTTEYNPSVKGRFTISRDNSKNTLYLQMNSLRAEDTAVYYCAREGHTAAPFDYWGQGTLVTVSS
VL: DIQMTQSPSSLSASVGDRVTITCRASQNIDKYLNWYQQKPGKAPKSLIYNTNNLQSGVPSRFSGSGSGTDFTLTISSLQPEDIATYYCLQHISRPRTFGTGTKLELK
notes: also called DIVHv2/DIVKv1

Biological target: T1, CD52 human leukocyte antigen
Experiment: FACS on HUT-78 cells (CD52+), FITC anti-human IgG Fc, median fluorescence, 4-parameter fit; titre = 50% of maximum binding
Method: Human T-cell lymphoma cell line HUT-78 is CD52 positive and was used to assess binding of the modified antibodies of the present invention. In the present example, different concentrations of test antibody were incubated with the cells and the amount of bound antibody was assessed following incubation with a fluorescent-labelled reporter reagent. The reporter is measured using a fluorescence activated cell sorter (FACS).
For detection, the cells were incubated for 1 hour on ice with a 1:1000 dilution of FITC-labelled anti-human IgG Fc domain. This reagent is a goat anti-human IgG (Fc specific) obtained from Sigma (Poole, UK). The cells were washed as previously and re-suspended in 100 μl of PBS/2% FBS and transferred to 4 ml FACS tubes (Becton Dickinson) containing 900 μl of PBS/2% FBS/Propidium Iodide (1:1000). The cells were analysed using a conventional Becton Dickenson FACS Calibur instrument.
The binding of the test and control antibodies was determined using the Median Fluorescence value. The saturating concentration of antibody was determined from plots of the Median Fluorescence—Zero Antibody Median Fluorescence versus Concentration of antibody. The binding curves were fitted to a logistic 4 parameter sigmoidal equation using SigmaPlot, giving an excellent fit with 95% confidence levels.

First: B1
Second: B2
The EC50 of the first is 1.5-fold higher: 3.7 µg/mL for the first, 2.45 µg/mL for the second.

B3 and B4 are within 1.5-fold of each other in EC50: 2.55 µg/mL for the first, 1.85 µg/mL for the second.

First: B5
Second: B6
The EC50 of the first is 2-fold lower: 1.71 µg/mL for the first, 3.45 µg/mL for the second.

Going from B7 to B8, the EC50 falls from 3.89 µg/mL to 2.39 µg/mL (1.6-fold).

B9 and B10 are within 1.5-fold of each other in EC50: 1.59 µg/mL for the first, 1.18 µg/mL for the second.

First: B11
Second: B12
The EC50 of the first is 1.5-fold lower: 4.01 µg/mL for the first, 6.21 µg/mL for the second.

Compared with B13, B14 is 2.1-fold lower in EC50: 17.8 µg/mL for the first, 8.54 µg/mL for the second.

B15 and B16 are within 1.5-fold of each other in EC50: 2.28 µg/mL for the first, 2.99 µg/mL for the second.

Going from B17 to B18, the EC50 falls from 4.43 µg/mL to 1.66 µg/mL (2.7-fold).

B19 and B20 are within 1.5-fold of each other in EC50: 4.05 µg/mL for the first, 5.56 µg/mL for the second.

Source: US20050152898A1 (BIOVATION, published 2005)
